Test results published in the RNAGym collection of RNA variant scans (doi:10.7554/elife.80360).

B1: Twister Ribozyme (parent)
chain: AACACUGCCAAUGCCGGUCCCAAGCCCGGAUAAAAGUGGAGGGGGCGG

Variants of: B1
Assay: self-cleavage, relative activity (ratio to wild type); higher = more cleavage; co-transcriptional

For AACACUGCCAAUGCCGGUCCCAAGCCCGGAAAAAAGUGGAGGGGGCGU, which self-cleavage is on record?
The self-cleavage was 0.881.

For AACACUGCCAAUGCCGGUCCCAAGCCCGGAAAAAAGUGGAGGGGGCGA, which self-cleavage is on record?
The self-cleavage was 0.717.

Which self-cleavage does the source give for AACACUGCCAAUGCCGGUCCCAAGCCCGGUUAAAACUGGAGGGGGCGG here?
Its self-cleavage is 0.559.

For AACACUGCCAAUGCCGGUCCCAAGCCCGGGUAAAAGUGGAGGGGGCGA, which self-cleavage is on record?
Its self-cleavage is 0.958.

For AACACUGCCAAUGCCGGUCCCAAGCCCGGAGAAAAGUGAAGGGGGCGG, which self-cleavage is on record?
The self-cleavage was 0.623.

For AACACUGCCAAUGCCGGUCCCAAGCCCGGAAAAAAGUGGAGGGGGAGG, which self-cleavage is on record?
Its self-cleavage is 0.816.

For AACACUGCCAAUGCCGGUCCCAAGCCCGGUUAAAAGUGGAGGUGGCGG, which self-cleavage is on record?
Its self-cleavage is 0.558.

Which self-cleavage does the source give for AACACUGCCAAUGCCGGUCCCAAGCCCGGUUAAAAGUGGAGGCGGCGG here?
Its self-cleavage is 0.229.

With AACACUGCCAAUGCCGGUCCCAAGCCCGGACAAAAGUAGAGGGGGCGG as the variant, how does the self-cleavage read?
The self-cleavage was 0.81.

With AACACUGCCAAUGCCGGUCCCAAGCCCGGACAAAAGUUGAGGGGGCGG as the variant, how does the self-cleavage read?
The self-cleavage was 0.904.

Which self-cleavage does the source give for AACACUGCCAAUGCCGGUCCCAAGCCCGGACAAAUGUGGAGGGGGCGG here?
The self-cleavage was 1.06.

For AACACUGCCAAUGCCGGUCCCAAGCCCGGGUAAAAGUGGAGGGAGCGG, which self-cleavage is on record?
Its self-cleavage is 0.85.

With AACACUGCCAAUGCCGGUCCCAAGCCCGGAGAAAAGUAGAGGGGGCGG as the variant, how does the self-cleavage read?
The self-cleavage was 0.937.

For AACACUGCCAAUGCCGGUCCCAAGCCCGGAGAAAAGUUGAGGGGGCGG, which self-cleavage is on record?
Its self-cleavage is 0.778.

Which self-cleavage does the source give for AACACUGCCAAUGCCGGUCCCAAGCCCGGGUAAAACUGGAGGGGGCGG here?
Its self-cleavage is 0.422.

Which self-cleavage does the source give for AACACUGCCAAUGCCGGUCCCAAGCCCGGAAAAAAGUGGAGUGGGCGG here?
The self-cleavage was 0.341.

For AACACUGCCAAUGCCGGUCCCAAGCCCGGAGAACAGUGGAGGGGGCGG, which self-cleavage is on record?
Its self-cleavage is 0.477.

Which self-cleavage does the source give for AACACUGCCAAUGCCGGUCCCAAGCCCGGACAAAAGUGUAGGGGGCGG here?
The self-cleavage was 0.19.

Which self-cleavage does the source give for AACACUGCCAAUGCCGGUCCCAAGCCCGGUUAAAAGUGGAGGGGGUGG here?
Its self-cleavage is 0.968.

For AACACUGCCAAUGCCGGUCCCAAGCCCGGGCAAAAGUGGAGGGGGCGG, which self-cleavage is on record?
Its self-cleavage is 0.988.

With AACACUGCCAAUGCCGGUCCCAAGCCCGGUUAAAAGAGGAGGGGGCGG as the variant, how does the self-cleavage read?
The self-cleavage was 0.742.

For AACACUGCCAAUGCCGGUCCCAAGCCCGGUUAAAAGCGGAGGGGGCGG, which self-cleavage is on record?
The self-cleavage was 0.72.

With AACACUGCCAAUGCCGGUCCCAAGCCCGGACAAAAAUGGAGGGGGCGG as the variant, how does the self-cleavage read?
Its self-cleavage is 0.725.

With AACACUGCCAAUGCCGGUCCCAAGCCCGGUUGAAAGUGGAGGGGGCGG as the variant, how does the self-cleavage read?
Its self-cleavage is 0.928.

With AACACUGCCAAUGCCGGUCCCAAGCCCGGUUAGAAGUGGAGGGGGCGG as the variant, how does the self-cleavage read?
The self-cleavage was 1.03.

For AACACUGCCAAUGCCGGUCCCAAGCCCGGUUAUAAGUGGAGGGGGCGG, which self-cleavage is on record?
Its self-cleavage is 0.873.

Which self-cleavage does the source give for AACACUGCCAAUGCCGGUCCCAAGCCCGGUUAAAAGUGGAGCGGGCGG here?
The self-cleavage was 0.501.

Which self-cleavage does the source give for AACACUGCCAAUGCCGGUCCCAAGCCCGGUUAAAAGUGGAGUGGGCGG here?
The self-cleavage was 0.434.

For AACACUGCCAAUGCCGGUCCCAAGCCCGGUUAAAAGUGGAGGGUGCGG, which self-cleavage is on record?
The self-cleavage was 0.973.

With AACACUGCCAAUGCCGGUCCCAAGCCCGGUUAAAUGUGGAGGGGGCGG as the variant, how does the self-cleavage read?
The self-cleavage was 0.812.

For AACACUGCCAAUGCCGGUCCCAAGCCCGGUUAAACGUGGAGGGGGCGG, which self-cleavage is on record?
Its self-cleavage is 1.07.

Which self-cleavage does the source give for AACACUGCCAAUGCCGGUCCCAAGCCCGGUUAAAGGUGGAGGGGGCGG here?
The self-cleavage was 0.772.

With AACACUGCCAAUGCCGGUCCCAAGCCCGGUUAAAAGUGGAAGGGGCGG as the variant, how does the self-cleavage read?
Its self-cleavage is 0.621.

Which self-cleavage does the source give for AACACUGCCAAUGCCGGUCCCAAGCCCGGAGAAAACUGGAGGGGGCGG here?
The self-cleavage was 0.712.

For AACACUGCCAAUGCCGGUCCCAAGCCCGGAGAAAAAUGGAGGGGGCGG, which self-cleavage is on record?
Its self-cleavage is 0.662.

Which self-cleavage does the source give for AACACUGCCAAUGCCGGUCCCAAGCCCGGACAAAAGUGGAGGGUGCGG here?
The self-cleavage was 1.01.

With AACACUGCCAAUGCCGGUCCCAAGCCCGGUUAAAAGUGGAGGGGGCGC as the variant, how does the self-cleavage read?
Its self-cleavage is 1.07.

For AACACUGCCAAUGCCGGUCCCAAGCCCGGAAAAAAGUGGCGGGGGCGG, which self-cleavage is on record?
Its self-cleavage is 0.207.

For AACACUGCCAAUGCCGGUCCCAAGCCCGGAAAAAAGUGGAGGCGGCGG, which self-cleavage is on record?
The self-cleavage was 0.168.

For AACACUGCCAAUGCCGGUCCCAAGCCCGGAAAAAAGUGGAGGUGGCGG, which self-cleavage is on record?
Its self-cleavage is 0.233.

With AACACUGCCAAUGCCGGUCCCAAGCCCGGAAAAAAGUGGAGGAGGCGG as the variant, how does the self-cleavage read?
The self-cleavage was 0.23.

With AACACUGCCAAUGCCGGUCCCAAGCCCGGGUAAAAGUGGAGGGGGCCG as the variant, how does the self-cleavage read?
Its self-cleavage is 0.534.

Which self-cleavage does the source give for AACACUGCCAAUGCCGGUCCCAAGCCCGGGUAAAAGUGGAGGGGUCGG here?
The self-cleavage was 0.757.

Which self-cleavage does the source give for AACACUGCCAAUGCCGGUCCCAAGCCCGGGUAAAAGUGGAGGGGACGG here?
The self-cleavage was 0.901.

With AACACUGCCAAUGCCGGUCCCAAGCCCGGGUAAAAGGGGAGGGGGCGG as the variant, how does the self-cleavage read?
The self-cleavage was 0.92.

With AACACUGCCAAUGCCGGUCCCAAGCCCGGACAAAAGUGGAGAGGGCGG as the variant, how does the self-cleavage read?
The self-cleavage was 0.363.

With AACACUGCCAAUGCCGGUCCCAAGCCCGGACAAAAGUGGAGCGGGCGG as the variant, how does the self-cleavage read?
Its self-cleavage is 0.413.

Which self-cleavage does the source give for AACACUGCCAAUGCCGGUCCCAAGCCCGGACAAAAGUGGUGGGGGCGG here?
Its self-cleavage is 0.149.

With AACACUGCCAAUGCCGGUCCCAAGCCCGGGUAAAAGUGUAGGGGGCGG as the variant, how does the self-cleavage read?
Its self-cleavage is 0.191.

For AACACUGCCAAUGCCGGUCCCAAGCCCGGGUAAAAGUGCAGGGGGCGG, which self-cleavage is on record?
Its self-cleavage is 0.159.

With AACACUGCCAAUGCCGGUCCCAAGCCCGGGUAAAAGUGAAGGGGGCGG as the variant, how does the self-cleavage read?
The self-cleavage was 0.582.

Which self-cleavage does the source give for AACACUGCCAAUGCCGGUCCCAAGCCCGGGUAAAAGUUGAGGGGGCGG here?
The self-cleavage was 0.771.

With AACACUGCCAAUGCCGGUCCCAAGCCCGGGUAAAAGUGGAGGCGGCGG as the variant, how does the self-cleavage read?
Its self-cleavage is 0.225.

Which self-cleavage does the source give for AACACUGCCAAUGCCGGUCCCAAGCCCGGGUAAAAGUGGAGGAGGCGG here?
Its self-cleavage is 0.22.
